Patent publication US7122636
Like-named read-outs stand apart in the source and are kept apart here.

T1: recombinant human IL-8, (ser-IL-8)72 (human, UniProt P10145 28-99)
T1 construct: mature; also called human wild type IL-8; HuIL-8
T1 sequence (looked up): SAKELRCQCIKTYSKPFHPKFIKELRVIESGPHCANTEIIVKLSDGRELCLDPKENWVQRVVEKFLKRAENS

T2: β-TG (UniProt P02775 48-128)
T2 construct: also called b-TG
T2 sequence (looked up): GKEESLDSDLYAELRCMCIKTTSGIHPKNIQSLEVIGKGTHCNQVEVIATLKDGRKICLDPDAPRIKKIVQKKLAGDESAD

T3: PF4 (UniProt P02776 32-101)
T3 construct: also called platelet factor 4
T3 sequence (looked up): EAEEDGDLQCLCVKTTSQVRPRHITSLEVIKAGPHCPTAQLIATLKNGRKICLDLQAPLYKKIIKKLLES

B1: humanized 6G425 F(ab)-1 (Fab, V domains shown)
VH: EVQLVESGGGLVQPGGSLRLSCAASGYSFSSHYMHWVRQAPGKGLEWVGYIDPSNGETTYNQKFKGRFTISRDNSKNTLYLQMNSLRAEDTAVYYCAARGDYRYNGDWFFDVWGQGT
VL: DIQMTQSPSSLSASVGDRVTITCRSSQSLVHGIGNTYLHWYQQKPGKAPKLLIYYKVSNRFSGVPSRFSGSGSGTDFTLTISSLQPEDFATYYCSQSTHVPLTFGQGTKVEIKR
notes: Fab with human kappa I and human IgG1 CH1 constant domains; also called version 1; V1
B2: humanized 6G425 F(ab)-2 (Fab, V domains shown)
VH: EVQLVESGGGLVQPGGSLRLSCAASGYSFSSHYMHWVRQAPGKGLEWVGYIDPSNGETTYNQKFKGRATISRDNSKNTLYLQMNSLRAEDTAVYYCAARGDYRYNGDWFFDVWGQGT
VL: DIQMTQSPSSLSASVGDRVTITCRSSQSLVHGIGNTYLHWYQQKPGKAPKLLIYYKVSNRFSGVPSRFSGSGSGTDFTLTISSLQPEDFATYYCSQSTHVPLTFGQGTKVEIKR
notes: template F(ab)-1; also called version 2
B3: humanized 6G425 F(ab)-3 (Fab, V domains shown)
VH: EVQLVESGGGLVQPGGSLRLSCAASGYSFSSHYMHWVRQAPGKGLEWVGYIDPSNGETTYNQKFKGRFTISVDNSKNTLYLQMNSLRAEDTAVYYCAARGDYRYNGDWFFDVWGQGT
VL: DIQMTQSPSSLSASVGDRVTITCRSSQSLVHGIGNTYLHWYQQKPGKAPKLLIYYKVSNRFSGVPSRFSGSGSGTDFTLTISSLQPEDFATYYCSQSTHVPLTFGQGTKVEIKR
notes: template F(ab)-1; also called version 3
B4: anti-IL-8 monoclonal antibody 5.12.14 (antibody, mouse IgG2a, V domains shown)
VH: EVQLVESGGGLVPPGGSLKLSCAASGFIFSSYGMSWVRQTPGKSLELVATINNNGDSTYYPDSVKGRFTISRDNAKNTLYLQMSSLKSEDTAMFYCARALISSATWFGYWGQGTLVTVSA
VL: DIVMTQSQKFMSTSVGDRVSVTCKASQNVGTNVAWYQQKPGQSPKALIYSSSYRYSGVPDRFTGSGSGTDFTLTISHVQSEDLADYFCQQYNIYPLTFGPGTKLELKR
notes: mouse IgG2a from hybridoma ATCC HB 11553
B5: 6G4V11N35A Fab (Fab, V domains shown)
VH: EVQLVQSGGGLVQPGGSLRLSCAASGYSFSSHYMHWVRQAPGKGLEWVGYIDPSNGETTYNQKFKGRFTLSRDNSKNTAYLQMNSLRAEDTAVYYCARGDYRYNGDWFFDVWGQGTLVTVSS
VL: DIQMTQSPSSLSASVGDRVTITCRSSQSLVHGIGATYLHWYQQKPGKAPKLLIYKVSNRFSGVPSRFSGSGSGTDFTLTISSLQPEDFATYYCSQSTHVPLTFGQGTKVEIKR

Columns and labels:
[1] = molecular target: T1, recombinant human IL-8, (ser-IL-8)72; experiment: 125I-IL-8 binding to human neutrophils, competition
[2] = molecular target: T1, recombinant human IL-8, (ser-IL-8)72; experiment: as above; remark: listed apart in the source
[3] = molecular target: T1, recombinant human IL-8, (ser-IL-8)72; experiment: 125I-IL-8 binding to human neutrophils, competition; against the chimeric F(ab)
[4] = molecular target: T1, recombinant human IL-8, (ser-IL-8)72; experiment: 125I-IL-8 binding to human neutrophils, competition; against F(ab)-1
β-TG = molecular target: T2, β-TG; experiment: cross reactivity test
PF4 = molecular target: T3, PF4; experiment: cross reactivity test
[5] = molecular target: T1, recombinant human IL-8, (ser-IL-8)72; experiment: cell-based or functional assay

| Binder | IC50 [2] [nM] | fold decrease in IL-8 binding [4] [fold] | also measured |
| --- | --- | --- | --- |
| B1 | 63 |  | IC50 [1]: 40 nM; fold reduction in binding affinity [3]: 5.5 fold |
| B2 | 106 | < 2 |  |
| B3 | 79.8 | < 2 |  |
| B4 |  |  | binding result (β-TG): no binding; binding result (PF4): no binding |
| B5 |  |  | IC50, neutrophil chemotaxis [5]: 2.7 nM |
